Measured values as given in patent US20220331363A1.

Biological target: human Burkitt's lymphoma cell Daudi
Test: flow cytometry (FACS) on Daudi cells, which Example 3 says do not express BCMA

- EC50: 58.2 µg/mL
Substance: murine anti-BCMA antibody C11D5.3 (scFv), reference antibody
